Consider 4 molecules from patent publication US20220282288A1, “NOVEL OLEATE HYDRATASES” (BRAIN BIOTECH AG, priority 2019, published 2022).

The conditions of data set [1]: Kim, Bi-Na et al. (2012); cited from earlier work.
Data set [2] can be described thus: Conversion of oleic acid to 10-hydroxystearic acid by cell-free extracts (HPLC). As to conditions: for activity at 30° C. compared with the wildtype enzymes: FIG. 3; for conversion of oleic acid to 10-hydroxystearic acid: cell-free extracts, pH7.0, 30° C., 150 mM oleic acid, 60 min, FAD 0.1 mM, NADH 5 mM, HPLC analysis. It counts as biochemical.
Data set [3] is described as follows: Effects of temperature on enzyme activity (oleic acid to 10-hydroxystearic acid). The data set is classed as biochemical. As to conditions: pH7.0, 150 mM oleic acid, 20 min. Here is the method:
The reactions were performed in 100 mM citrate/phosphate buffer (pH7.0) containing MgSO4;
3.1 mg/ml total protein of Lactococcus lactis (a) or 5.6 mg/mL of total protein of chimeric oleate hydratase from Lysinibacillus fusiformis and Lactococcus lactis (b). FAD (0.1 mM) and NADH (5 mM) were applied for the FAD-reducing conditions. Reactions were started by the addition of 150 mM oleic acid for 20 min. At the relative activity of 100%, the specific enzyme activity of the oleate hydratase from Lactococcus lactis was 0.8 μmol min^−1 mg^−1 total protein and the specific enzyme activity of the chimeric oleate hydratase from Lysinibacillus fusiformis and Lactococcus lactis was 1.0 μmol min^−1 mg^−1 total protein.

Data set [4] can be described thus: Effects of pH on enzyme activity (oleic acid to 10-hydroxystearic acid, HPLC-MS). It counts as biochemical. To be noted: citrate/phosphate buffer pH 5.6-8.0, 30° C., 40 min, 150 mM oleic acid. As for the experimental part:
The reactions were performed in 100 mM citrate/phosphate buffer (pH levels ranging from 5.6-8.0) containing MgSO4; 8.9 mg/ml total protein of Lactococcus lactis or 9.3 mg/mL of total protein of chimeric oleate hydratase from Lysinibacillus fusiformis and Lactococcus lactis. FAD (0.1 mM) and NADH (5 mM) were applied for the FAD-reducing conditions. Reactions were started by the addition of 150 mM oleic acid at 30° C. for 40 min. Following the reactions, the solutions of fatty acids and hydroxy fatty acids were recovered by three consecutive extractions with 1.6 volume of dichloromethane. After solvent evaporation, the resultant sample was diluted in ethanol and analyzed by HPLC-MS. Analyses were performed on an Agilent 1100 HPLC instrument equipped with evaporative light scattering detector (ELSD) and a Luna® C18 (2) HPLC column (RP-18e 5 μm, 250×4.6 mm) maintained at 50° C. The elution system consisted of ddH2O with 0.1% formic acid (A) and methanol with 0.1% formic acid (B). The gradient was set as follows: 0 min (80% B); 15 min (100% B); 23.2 min (80% B) at a flow rate of 0.7 mL min^−1.
Data represent the mean±standard deviation of three independent experiments (FIG. 5A and FIG. 6A).

B1: oleate hydratase from Lysinibacillus fusiformis: oleate hydratase of Lysinibacillus fusiformis, known from the prior art (protein, listed as Lysinibacillus fusiformis)
chain: MYYSNGNYEAFARPKKPEGVDGKSAYLIGSGLASLSAACFLIRDGQMKGENIHILEELDISGGSLDGILNPTRGFIIRGGREMEDHFECLWDLFRSIPSLEVDNASVLDEFYWLNKEDPNYSKCRLIKDRGQRLEDDGKFTLSDQSSEEMIKLFFTPEEKLEDKKITDVFSEEFFESNFWLYWSTMFAFEKWHSAMEMRRYIMRFIHHIGGLPDLSALKFTKYNQYESLVLPMIKYLEGHDVDFQYNTVVENVLVDKVGDKKVAHTLVLRKNGVKENIELTENELVFVTNGSITESTTYGDNYTPAPVNKELGGSWSLWKNIAAQDTDFGRPEKFCDNLPKESWFVSATLTTLDDRVAPYIEKISKRDPYAGKVVTGGIVTATDSNWMLSYTLNRQPHFKHQPKDQLVVWIYGLLSNKPGDFIKKSITECSGIEIAQEWLYHMGVPVDEIPDIAQNSCNTIPCYMPYITSYFMPRAMGDRPLVVPEGSANLAFIGNFSETVRDTVFTTEYSVRTAMEAVYQLLNIDRGVPEVFASSFDVRTLLASTARLLDGKKLTDIDAPFILKQIGKLGIHKTKDTIIYDLLKESELI
modifications: Oleat Hydratase
notes: oleate hydratase of Lysinibacillus fusiformis, known from the prior art
As for B1, in data set [1], the “temperature of maximal enzyme activity” value is 35 °C.

B2: 1LI-2Lf: chimeric oleate hydratase: 193 N-terminal amino acids of Lactococcus lactis enzyme and 397 C-terminal amino acids of Lysinibacillus fusiformis enzyme (protein)
chain: MRYTNGNYEAFVHPRKPENVDQKSAYIIGAGLAGLATAVFLIRDGQMSGDRIHILEELPLSGGSLDGSFIPHDGFVVRGGREMENHFECLWDLFRTIPSLEVDNASVLDEFYRIDRDDPNSSNCRIIHNRGERVDDDGKFTLSPKAQEEIIKLFMTKEELLVGKTIEDCFTDEFFESNFWLYWCSMFAFEKWHSAMEMRRYIMRFIHHIGGLPDLSALKFTKYNQYESLVLPMIKYLEGHDVDFQYNTVVENVLVDKVGDKKVAHTLVLRKNGVKENIELTENELVFVTNGSITESTTYGDNYTPAPVNKELGGSWSLWKNIAAQDTDFGRPEKFCDNLPKESWFVSATLTTLDDRVAPYIEKISKRDPYAGKVVTGGIVTATDSNWMLSYTLNRQPHFKHQPKDQLVVWIYGLLSNKPGDFIKKSITECSGIEIAQEWLYHMGVPVDEIPDIAQNSCNTIPCYMPYITSYFMPRAMGDRPLVVPEGSANLAFIGNFSETVRDTVFTTEYSVRTAMEAVYQLLNIDRGVPEVFASSFDVRTLLASTARLLDGKKLTDIDAPFILKQIGKLGIHKTKDTIIYDLLKESELI
modifications: OhyLlac579Lfus
notes: chimeric oleate hydratase: 193 N-terminal amino acids of Lactococcus lactis enzyme and 397 C-terminal amino acids of Lysinibacillus fusiformis enzyme
B2: in data set [2], the “activity at 30° C. compared with the wildtype enzymes” value is “higher than the wildtype enzyme from Lactococcus lactis and lower than the wildtype enzyme from Lysinibacillus fusiformis”; the “conversion of oleic acid to 10-hydroxystearic acid” value is listed as “confirmed”.

B3: oleate hydratase from Lactococcus lactis: oleate hydratase of Lactococcus lactis strain A106, previously annotated as linoleate isomerase (protein, listed as Lactococcus lactis)
chain: MRYTNGNYEAFVHPRKPENVDQKSAYIIGAGLAGLATAVFLIRDGQMSGDRIHILEELPLSGGSLDGSFIPHDGFVVRGGREMENHFECLWDLFRTIPSLEVDNASVLDEFYRIDRDDPNSSNCRIIHNRGERVDDDGKFTLSPKAQEEIIKLFMTKEELLVGKTIEDCFTDEFFESNFWLYWCSMFAFEKWHSAIEMRRYIMRFIHHIEGLPDFSALKFTKYNQYESLVKPLISYLKDHGVDFKYGAQVENVEVDFSNGKKVAKAIVFADKKIKELTGNDLVFVTNGSITESSTQGSPTQVAPKTSELGGSWKLWQNLAKQSEEFGHPDVFCKDIPKEAWVVSATVTWKNLKIQPYFEKLTHRQLRSGKVVTGGIVTVKDSNWLLSFTTHRQPHFKEQNDQETVTWVYGLLSNTPGNYIKKPIEDCTGEEITQELLYHLGMPEEEIEAFVKENTNTIPVYMPFITSYFMLREPGDRPLVVPEQSVNLAFLGNFAETERDTVFTTEYSVRTAMEAVYQLLNVDRGVPEVYASAYDLRTLASSAYYLSDKQKLEDLELSFIKKQALKVGLKKIKGTYIEELLEDAGLI
modifications: Oleat Hydratase
notes: oleate hydratase of Lactococcus lactis strain A106, previously annotated as linoleate isomerase
For the molecule B3, in data set [3], the “specific enzyme activity at the relative activity of 100%” value was 0.8 μmol min^−1 mg^−1 total protein and the “temperature of highest enzyme activity (temperature optimum)” value was 15 °C.

B4: 1Lf-2LI: chimeric oleate hydratase: 193 N-terminal amino acids of Lysinibacillus fusiformis enzyme and 394 C-terminal amino acids of Lactococcus lactis enzyme (protein)
chain: MYYSNGNYEAFARPKKPEGVDGKSAYLIGSGLASLSAACFLIRDGQMKGENIHILEELDISGGSLDGILNPTRGFIIRGGREMEDHFECLWDLFRSIPSLEVDNASVLDEFYWLNKEDPNYSKCRLIKDRGQRLEDDGKFTLSDQSSEEMIKLFFTPEEKLEDKKITDVFSEEFFESNFWLYWSTMFAFEKWHSAIEMRRYIMRFIHHIEGLPDFSALKFTKYNQYESLVKPLISYLKDHGVDFKYGAQVENVEVDFSNGKKVAKAIVFADKKIKELTGNDLVFVTNGSITESSTQGSPTQVAPKTSELGGSWKLWQNLAKQSEEFGHPDVFCKDIPKEAWVVSATVTWKNLKIQPYFEKLTHRQLRSGKVVTGGIVTVKDSNWLLSFTTHRQPHFKEQNDQETVTWVYGLLSNTPGNYIKKPIEDCTGEEITQELLYHLGMPEEEIEAFVKENTNTIPVYMPFITSYFMLREPGDRPLVVPEQSVNLAFLGNFAETERDTVFTTEYSVRTAMEAVYQLLNVDRGVPEVYASAYDLRTLASSAYYLSDKQKLEDLELSFIKKQALKVGLKKIKGTYIEELLEDAGLI
modifications: OhyLfus581Llac
notes: chimeric oleate hydratase: 193 N-terminal amino acids of Lysinibacillus fusiformis enzyme and 394 C-terminal amino acids of Lactococcus lactis enzyme
Consider B4, for which, in data set [2], the “activity at 30° C. compared with the wildtype enzymes” value was “higher than the wildtype enzyme from Lactococcus lactis and lower than the wildtype enzyme from Lysinibacillus fusiformis”; the “conversion of oleic acid to 10-hydroxystearic acid” value is listed as “confirmed”. Besides, the pH optimum in data set [4] is 6.5. In data set [3], the “specific enzyme activity at the relative activity of 100%” value is given as 1.0 μmol min^−1 mg^−1 total protein.
